B1: GST–SKIP(1-310), Q8IWE5 D220A; F221A; G222A (protein)
chain: MEPGEVKDRILENISLSVKKLQSYFAACEDEIPAIRNHDKVLQRLCEHLDHALLYGLQDLSSGYWVLVVHFTRREAIKQIEVLQHVATNLGRSRAWLYLALNENSLESYLRLFQENLGLLHKYYVKNALVCSHDHLTLFLTLVSGLEFIRFELDLDAPYLDLAPYMPDYYKPQYLLDFEDRLPSSVHGSDSLSLNSFNSVTSTNLEWDDSAIAPSSEDYAAADVFPAVPSVPSTDWEDGDLTDTVSGPRSTASDLTSSKASTRSPTQRQNPFNEEPAETVSSSDTTPVHTTSQEKEEAQALDPPDACTEL
B2: GST–SKIP(1-310), Q8IWE5 W236A; E237A (protein)
chain: MEPGEVKDRILENISLSVKKLQSYFAACEDEIPAIRNHDKVLQRLCEHLDHALLYGLQDLSSGYWVLVVHFTRREAIKQIEVLQHVATNLGRSRAWLYLALNENSLESYLRLFQENLGLLHKYYVKNALVCSHDHLTLFLTLVSGLEFIRFELDLDAPYLDLAPYMPDYYKPQYLLDFEDRLPSSVHGSDSLSLNSFNSVTSTNLEWDDSAIAPSSEDYDFGDVFPAVPSVPSTDAADGDLTDTVSGPRSTASDLTSSKASTRSPTQRQNPFNEEPAETVSSSDTTPVHTTSQEKEEAQALDPPDACTEL
B3: GST–SKIP(1-310), Q8IWE5 D238A; G239A; D240A (protein)
chain: MEPGEVKDRILENISLSVKKLQSYFAACEDEIPAIRNHDKVLQRLCEHLDHALLYGLQDLSSGYWVLVVHFTRREAIKQIEVLQHVATNLGRSRAWLYLALNENSLESYLRLFQENLGLLHKYYVKNALVCSHDHLTLFLTLVSGLEFIRFELDLDAPYLDLAPYMPDYYKPQYLLDFEDRLPSSVHGSDSLSLNSFNSVTSTNLEWDDSAIAPSSEDYDFGDVFPAVPSVPSTDWEAAALTDTVSGPRSTASDLTSSKASTRSPTQRQNPFNEEPAETVSSSDTTPVHTTSQEKEEAQALDPPDACTEL
B4: GST–SKIP(1-310), Q8IWE5 E217A; D218A; Y219A (protein)
chain: MEPGEVKDRILENISLSVKKLQSYFAACEDEIPAIRNHDKVLQRLCEHLDHALLYGLQDLSSGYWVLVVHFTRREAIKQIEVLQHVATNLGRSRAWLYLALNENSLESYLRLFQENLGLLHKYYVKNALVCSHDHLTLFLTLVSGLEFIRFELDLDAPYLDLAPYMPDYYKPQYLLDFEDRLPSSVHGSDSLSLNSFNSVTSTNLEWDDSAIAPSSAAADFGDVFPAVPSVPSTDWEDGDLTDTVSGPRSTASDLTSSKASTRSPTQRQNPFNEEPAETVSSSDTTPVHTTSQEKEEAQALDPPDACTEL

The target in the assay is HA–KLC2, O88448. The assay is described as follows: GST pull-down, immunoblot (IB: HA) quantified. Conditions: chain shown with the change; lysates of 293T cells co-expressing HA-KHC and HA-KLC2 (kinesin-1 tetramer); three independent experiments; parent: est. 1.0; read off a plot.
HA–KLC2, O88448, sequence (O88448 whole entry): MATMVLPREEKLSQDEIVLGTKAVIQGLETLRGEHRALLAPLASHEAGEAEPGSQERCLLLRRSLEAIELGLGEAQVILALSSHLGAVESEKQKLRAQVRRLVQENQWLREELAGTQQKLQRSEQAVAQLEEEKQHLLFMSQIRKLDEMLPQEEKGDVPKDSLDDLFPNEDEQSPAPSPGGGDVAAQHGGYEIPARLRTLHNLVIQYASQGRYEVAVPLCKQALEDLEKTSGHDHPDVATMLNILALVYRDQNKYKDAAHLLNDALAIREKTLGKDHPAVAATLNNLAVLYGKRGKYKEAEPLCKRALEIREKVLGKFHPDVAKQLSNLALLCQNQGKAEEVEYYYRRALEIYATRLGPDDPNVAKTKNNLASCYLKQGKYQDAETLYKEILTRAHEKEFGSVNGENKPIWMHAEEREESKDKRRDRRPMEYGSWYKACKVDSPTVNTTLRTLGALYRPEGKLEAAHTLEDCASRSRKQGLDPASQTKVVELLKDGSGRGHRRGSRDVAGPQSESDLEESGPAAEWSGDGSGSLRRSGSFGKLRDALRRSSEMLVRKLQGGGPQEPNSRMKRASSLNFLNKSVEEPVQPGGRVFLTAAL
As for B1, the ratio to parent is 0.47.
The value for B2 was 0.95; that for B3 was 0.89; that for B4 was 0.63.

Values taken from PMC5450233.
